Experimental data: US20240228570A9, “PLATFORM TECHNOLOGY FOR TREATMENT OF INFLAMMATORY, IMMUNOLOGICAL AND/OR AUTOIMMUNOLOGICAL DISEASES” (ellennbe GmbH, priority 2021, published 2024)

System: inflammatory disease, immunological disease and/or autoimmunological disease
Test: Treatment of patients: condition as stated by patient and physician (pain, fatigue, daily life, duration of effect, relapses)
Assay type: in vivo, human
Conditions: Patient 11, ankylosing spondylitis; within half a year the biologics lost their effect
Method: All patients treated in the following Inventive Examples, Reference Examples and Comparative Examples were selected solely based on their diagnosis without performing a preselection in view of other parameters.
Annotation to the Tables 8A and B and 9 to 10: Patients were usually examined and treated in the same session. The success of the treatment or the effect thereof was then determined in the following session, usually one week later, and the next treatment performed as indicated in the tables.

B1: Cimzia®: biologic, certolizumab pegol (antibody, chains of the INN, looked up, V domains shown)
VH: EVQLVESGGGLVQPGGSLRLSCAASGYVFTDYGMNWVRQAPGKGLEWMGWINTYIGEPIYADSVKGRFTFSLDTSKSTAYLQMNSLRAEDTAVYYCARGYRSYAMDYWGQGTLVTVSS
VL: DIQMTQSPSSLSASVGDRVTITCKASQNVGTNVAWYQQKPGKAPKALIYSASFLYSGVPYRFSGSGSGTDFTLTISSLQPEDFATYYCQQYNIYPLTFGQGTKVEIK
modifications: Fab' PEG (pegol)
effect of earlier treatment with biologics (patient's report): had little effect from the outset
